± gives the half width of the 95% confidence interval.
How the values were obtained:
[1] = folding stability dG unfold from trypsin proteolysis; higher = more stable
How it was run: (§1)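 Only designs with AlphaFold2 dimer inter-PAE above 15 were retained; each was a mini-protein under 80 residues with no cysteine, in a PA-tagged cDNA display construct. After digestion with trypsin and chymotrypsin and sequencing, K50 was inferred by Bayesian fitting of counts, and unfolding free energy was derived per protease or combined against a sequence-predicted unfolded-state K50 and a shared folded-state K50.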

[2] = folding stability dG unfold from chymotrypsin proteolysis; higher = more stable
How it was run: as §1

[3] = folding stability dG unfold (combined trypsin and chymotrypsin); higher = more stable
How it was run: as §1

| Sequence | folding stability dG unfold [1] [kcal/mol] | folding stability dG unfold [2] [kcal/mol] | folding stability dG unfold [3] [kcal/mol] |
| --- | --- | --- | --- |
| SAGGSAGGSAGMVETVSTTTSVETGPDSTRYTTTTTTVLVTDSSGTPIATTTTTTTTVTASAGGSAGGSAGG [r17_139_JUSTAS] | 1.45 ± 0.051 | 0.314 ± 0.17 | 0.986 ± 0.056 |
| SAGGSAGGSGITPAAKKIAAEIEKKYPNEKIKVEEELLPNGYLKIKVTTDNGKKYEIIIKVGGSAGGSAGGS [r20_210_TrMRF] | 2.51 ± 0.12 | 3.51 ± 0.053 | 3.23 ± 0.077 |
| SAGGSAGGSAGGKSYTDPNSNTVTTLDEGPGFGKVTTTTYKPEEPVPLETTESIIGPVLSSAGGSAGGSAGG [r7_343_JUSTAS] | 0.367 ± 0.04 | -0.026 ± 0.11 | 0.273 ± 0.24 |
| SAGGSTVTVTVRRRVRVEVNGELREFEVEVTVTVRLPPPPPVIELPPEQVTRIEWDEETQELRVEVDSAGGS [r8_28_TrROS_Hall] | 2.98 ± 0.21 | 3.33 ± 0.063 | 3.28 ± 0.21 |
| SAGGSAGGSNKKKKTIMFTIKLDVPEGTPTAEEIADELKELSPNVEIDNIMFTPNEVYIMIKVSAGGSAGGS [r12_454_TrROS] | 1.16 ± 0.077 | 1.84 ± 0.062 | 1.61 ± 0.18 |
| SAGGSAGGFIEYDPKTGTITVTFPSSVSPEDVRAAIEAAGFPATPVAYSYDPSPPVRTVTFKVASAGGSAGG [r6_396_JUSTAS] | 1.14 ± 0.02 | 0.832 ± 0.11 | 1.06 ± 0.092 |
| SAGGSAGGSAGKPKTKTITLTLLVYDEETGEFYRIEARIEINEDGSITIEEKIEKLPLKPSAGGSAGGSAGG [r11_941_TrROS_Hall] | 2.81 ± 0.13 | 4.17 ± 0.1 | 3.91 ± 0.12 |
| SAGGSAGGMVLRITLPNGEVIEIPLEELGLSEEERKRRLAELLAEELRKLFPGKEIKVEVVELPSAGGSAGG [r6_164_TrROS_Hall] | 3.54 ± 0.08 | 4 ± 0.057 | 3.83 ± 0.14 |
| SAGGSAGGSAGGSWITFRIPEGNPEFIEELARGFGIKPKRINPNRGTITIKLPPGAKIVSAGGSAGGSAGGS [r4_3_TrROS] | 0.474 ± 0.12 | 0.645 ± 0.096 | 0.641 ± 0.11 |
| SAGWQTIDFPIPPGEDIPIPIGNRPLRIQVDPNKNKYEIFNPFLGYRISIDVDPGAGWIKITIEPLKPPSAG [r5_302_TrROS] | 3.34 ± 0.13 | 4.5 ± 0.15 | 3.98 ± 0.26 |
| SAGGSAGGIEITEISRSEELLKLDVPEDTLVLKVKHPDGKEIEVTFPANIPIEEAKEKAKEFVESAGGSAGG [r6_986_TrMRF] | -0.248 ± 0.079 | -0.176 ± 0.15 | -0.188 ± 0.18 |
| SAGGSAGGSMLPLPIESIEVVPRRAPGGKTYYVAFIRLKADGKPLVIEFEADNPGEALEKLEASAGGSAGGS [r20_238_TrMRF] | 1.14 ± 0.046 | 1.46 ± 0.11 | 1.34 ± 0.14 |
| SAGGSAGGSPYKEVPVPVRIHSPDGETHEFPGTIWKSPDDGMLEIRFPGNGKKHKIPLNDIQISAGGSAGGS [r12_772_TrROS] | -1.5 ± 0.59 | -0.606 ± 0.19 | -0.699 ± 0.22 |
| SAGGMTVTLEIEIPAEELSEEELKALLEELFPNAEVTVERLPDGTLRITIRVEVPPAPPEVVVLPDKSAGGS [r16_535_TrROS_Hall] | 2.63 ± 0.082 | 2.97 ± 0.12 | 2.88 ± 0.12 |
| SMPPDEKLIFVTRFKVKPDNPEDIEKALAAARETVRALLEELGLPEVKEVRVLRVEVHPDGYVTVVVEVGSA [r9_754_TrMRF] | 4.05 ± 0.11 | 4.73 ± 0.1 | 4.49 ± 0.08 |
| SAGGPKWYYITIKIPDDPKKAERLVDRLQDLFGEDVRINVNPGNNHVTVWIPNDLRPLLKDHGLEITPSAGG [r13_156_TrROS] | 2.94 ± 0.086 | 2.95 ± 0.02 | 2.93 ± 0.047 |
| SAGGSAGGSAKKPPVYKIKIKVVNKKTKKEIEIEVEVKAGKTPEEIAKELAKKFGIEKVEIESAGGSAGGSA [r18_58_TrROS_Hall] | 1.14 ± 0.12 | 1.47 ± 0.18 | 1.45 ± 0.27 |
| SAGGSAEEARALAEQVREEVRAAHAPDEVVTVTVELPDGTRVEVTFDAAGEVLSVTIYRPDGTPELSAGGSA [r2_84_JUSTAS] | 1.04 ± 0.025 | 2.27 ± 0.049 | 1.88 ± 0.077 |
| SAGGSAGGSAGKNWFFRIKIKYPNGEERTIYIPGTLDEIKEELPGPIKNIDIEPMPAEDMSAGGSAGGSAGG [r11_596_TrROS] | 1.05 ± 0.045 | 1.76 ± 0.1 | 1.52 ± 0.078 |
| SDWHYIQIPFEITFKAPPEQARQFVEDLAENLGITDINVDNIEYDPNNGEVKVKVSISIMIPPPPPPEDDSA [r9_918_TrROS] | 2.36 ± 0.15 | 3.36 ± 0.12 | 2.73 ± 0.2 |
| SAGGSAGGSAGGMIIIIPTPKGTVALVIDENSDKPTLIEASPDEIPDLIEKGAKEVIILPSAGGSAGGSAGG [r7_266_TrMRF] | 0.363 ± 0.072 | 1.22 ± 0.052 | 0.932 ± 0.13 |

Reference: the supplement of paper PMC12764529
